The record followed here is patent US20240368568, “MODIFIED PRP43 HELICASE AND USE THEREOF” (QITAN TECHNOLOGY LTD., CHENGDU, published 2024).

Data set [1] concerns the target Prp43-GP-2 (F181C/N623C/C508S) (Chaetomium thermophilum). As to the kind of experiment: EMSA; no significant dissociation with or without TMAD; 120 nM protein, 30 nM DNA. The settings on record: tags: C-terminal G-path domain fusion; GST tag removed; label: FAM. Here is the method:
(§1) In this example, the binding of the N-terminus (M1-N60)-truncated wild-type Prp43 helicases or the modified protein constructs Prp43-GP and Prp43-GP-2 (F181C/N623C/C508S) to DNA, including the enhancement of nucleic acid binding following disulfide bond formation between mutant sites F181C and N623C in the mutants catalyzed by a TMAD catalyst, was assayed by an electrophoresis mobility shift assay.
(§2) The experimental procedures were as follows: 30 nM FAM fluorophore-labeled single-stranded poly-thymine substrate T44-37-FAM was added to a buffer (10 mM HEPES, 50 mM KCl, pH 7.0), the wild-type Prp43 helicase and the modified helicases […] and Prp43-GP-2 at a final concentration of 120 nM were separately added, and the mixture was incubated at 30° C. for 1.5 h; a TMAD cross-linking agent at a final concentration 1000 times that of the helicase was used for catalyzing the crosslinking of cysteines at mutation sites, and the mixture was incubated at 30° C. for 1.5 h.

Data set [2] concerns the target Prp43-GP (T61-A764 fused to G-path domain of Pfa1) (Chaetomium thermophilum). As to the kind of experiment: EMSA; milder dissociation than wild type; 120 nM protein, 30 nM DNA. The settings on record: tags: C-terminal G-path domain fusion; GST tag removed; label: FAM. Here is the method: as §1, §2
A general note: A gel shift assay detects complexes by their altered migration in electrophoresis.

B1: T44-37-FAM poly-thymine substrate (ssDNA)
DNA: TTTTTTTTTTTTTTTTTTTTTTTTTTTTTTTTTTTTTTTTTTTT
modifications: [FAM at T37 (from name)]
Turning to B1, the binding result in data set [1] and in data set [2] was “binds” throughout.
